{"source": "paper doi:10.1101/2021.11.20.466133", "key": {"[1]": {"biological_target": "MsDisA_(1-158) (only N-terminal domain-1) (Mycobacterium smegmatis mc2155)", "test": "SEC-MALS"}, "[2]": {"biological_target": "MsDisA_(1-316) (domains 1 and 2) (Mycobacterium smegmatis mc2155)", "test": "SEC-MALS"}, "[3]": {"biological_target": "MsDisA_(132-372) (domains 2 and 3) (Mycobacterium smegmatis mc2155)", "test": "SEC-MALS"}, "[4]": {"biological_target": "Mycobacterium smegmatis DNA integrity scanning protein (MsDisA), c-di-AMP synthase (Mycobacterium smegmatis mc2155)", "test": "negative-stain TEM"}, "[5]": {"biological_target": "Mycobacterium smegmatis DNA integrity scanning protein (MsDisA), c-di-AMP synthase (Mycobacterium smegmatis mc2155)", "test": "SEC-MALS"}, "[6]": {"biological_target": "Mycobacterium smegmatis DNA integrity scanning protein (MsDisA), c-di-AMP synthase (Mycobacterium smegmatis mc2155)", "test": "cryo-EM structure"}}}
{"substance": "MsDisA_(1-158) (only N-terminal domain-1) (domain or fragment)", "values": [{"measurement": "stoichiometry N", "setting": "[1]", "result": 8}]}
{"substance": "MsDisA_(1-316) (domains 1 and 2) (domain or fragment)", "values": [{"measurement": "stoichiometry N", "setting": "[2]", "result": 8}]}
{"substance": "MsDisA_(132-372) (domains 2 and 3) (domain or fragment)", "values": [{"measurement": "stoichiometry N", "setting": "[3]", "result": 2}]}
{"substance": "Mycobacterium smegmatis DNA integrity scanning protein (MsDisA), c-di-AMP synthase (enzyme)", "values": [{"measurement": "stoichiometry N", "setting": "[4]", "result": 8}, {"measurement": "stoichiometry N", "setting": "[5]", "result": 8}, {"measurement": "stoichiometry N", "setting": "[6]", "result": 8}]}
